# Laboratory results published in the supplement of paper PMC10567573.
# B1: FEM1A (parent)
# chain: PCCSSSPEEPLNGESYESCCPTSR
# Variants of: B1
# Experiment: protein stability index of a GFP-peptide fusion (GPS, HEK-293T) (PSI 1-6); higher = more stable
# Details: c terminus: a fixed tail appended
# 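Further: lentivirally expressed fusions sorted by FACS into six bins by GFP to DsRed ratio, PSI derived from sequencing read proportions per bin multiplied by bin number.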
row,Variant,protein stability index
1,PCCSSSPEEPLNGESFESCCPTSR [Y16F],3.97
2,PCCSSSPEEPLNGESCESCCPTSR [Y16C],4.27
3,PCCSSSPEEPLNGESGESCCPTSR [Y16G],3.9
4,PCCSSSPEEPLNGESPESCCPTSR [Y16P],4.61
5,PCCSSSPEEPLNGESDESCCPTSR [Y16D],4.57
6,PCCSSSPEEPLNGESVESCCPTSR [Y16V],4.35
7,PCCSSSPEEPLNGESTESCCPTSR [Y16T],4.37
8,PCCSSSPEEPLNGESLESCCPTSR [Y16L],3.84
9,PCCSSSPEEPLNGESIESCCPTSR [Y16I],3.73
10,PCCSSSPEEPLNGESEESCCPTSR [Y16E],4.69
11,PCCSSSPEEPLNGESAESCCPTSR [Y16A],3.55
12,PCCSSSPEEPLNGESSESCCPTSR [Y16S],3.7
13,PCCSSSPEEPLNGESRESCCPTSR [Y16R],3.35
14,PCCSSSPEEPLNGESQESCCPTSR [Y16Q],4.55
15,PCCSSSVEEPLNGESYESCCPTSR [P7V],4.45
16,PCCSSSWEEPLNGESYESCCPTSR [P7W],2.44
17,PCCSSSYEEPLNGESYESCCPTSR [P7Y],3.02
18,PCCSSSTEEPLNGESYESCCPTSR [P7T],3.29
19,PCCSSSPEEPLNGENYESCCPTSR [S15N],3.62
20,PCCSSSPEEPLNGEIYESCCPTSR [S15I],3.66
21,PCCSSSPEEPLNGEQYESCCPTSR [S15Q],3.52
22,PCCSSSPEEPLNGEHYESCCPTSR [S15H],3.92
23,PCCSSSPEEPLNGEGYESCCPTSR [S15G],3.88
24,PCCSSSPEEPLNGETYESCCPTSR [S15T],2.69

row,Variant,protein stability index
1,PCCSSSPEEPLNGECYESCCPTSR [S15C],3.47
2,PCCSSSPEEPLNGEFYESCCPTSR [S15F],2.63
3,PCCSSSPEEPLNGEKYESCCPTSR [S15K],3.68
4,PCCSSSPEEPLNGEVYESCCPTSR [S15V],3.81
5,PCCSSSPEEPLNGEEYESCCPTSR [S15E],3.61
6,PCCSSSPEEPLNGEPYESCCPTSR [S15P],4.14
7,PCCSSSPEEPLNGERYESCCPTSR [S15R],3.51
8,PCCSSSPEEPLNGELYESCCPTSR [S15L],3.07
9,PCCSSSPEEPLNGEDYESCCPTSR [S15D],4.61
10,PCCSSSPEEPLNGEAYESCCPTSR [S15A],3.98
11,PCCSSSPEEPLNGEWYESCCPTSR [S15W],2.85
12,PCCSSSPEEPLNGEMYESCCPTSR [S15M],3.12
13,PCCSSSPEEPLNGEYYESCCPTSR [S15Y],3.17
14,PCCSSSPEVPLNGESYESCCPTSR [E9V],3.08
15,PCCSSSPECPLNGESYESCCPTSR [E9C],3.21
16,PCCSSSPEHPLNGESYESCCPTSR [E9H],3.67
17,PCCSSSPEIPLNGESYESCCPTSR [E9I],3.33
18,PCCSSSPEGPLNGESYESCCPTSR [E9G],3.67
19,PCCSSSPEFPLNGESYESCCPTSR [E9F],2.87
20,PCCSSSPEDPLNGESYESCCPTSR [E9D],3.64
21,PCCSSSPENPLNGESYESCCPTSR [E9N],3.64
22,PCCSSSPEAPLNGESYESCCPTSR [E9A],3.39
23,PCCSSSPEPPLNGESYESCCPTSR [E9P],3.36
24,PCCSSSPELPLNGESYESCCPTSR [E9L],2.69

row,Variant,protein stability index
1,PCCSSSPEWPLNGESYESCCPTSR [E9W],2.02
2,PCCSSSPEMPLNGESYESCCPTSR [E9M],2.69
3,PCCSSSPEKPLNGESYESCCPTSR [E9K],3.41
4,PCCSSSPESPLNGESYESCCPTSR [E9S],2.88
5,PCCSSSPEQPLNGESYESCCPTSR [E9Q],3.52
6,PCCSSSPEYPLNGESYESCCPTSR [E9Y],2.77
7,PCCSSSPETPLNGESYESCCPTSR [E9T],3.34
8,PCCSSSPERPLNGESYESCCPTSR [E9R],3.35
9,PCCSSSPEEPLNTESYESCCPTSR [G13T],3.75
10,PCCSSSPEEPLNIESYESCCPTSR [G13I],3.42
11,PCCSSSPEEPLNPESYESCCPTSR [G13P],4.01
12,PCCSSSPEEPLNKESYESCCPTSR [G13K],4.05
13,PCCSSSPEEPLNNESYESCCPTSR [G13N],3.46
14,PCCSSSPEEPLNFESYESCCPTSR [G13F],3.26
15,PCCSSSPEEPLNRESYESCCPTSR [G13R],3.96
16,PCCSSSPEEPLNYESYESCCPTSR [G13Y],3.01
17,PCCSSSPEEPLNDESYESCCPTSR [G13D],4.43
18,PCCSSSPEEPLNLESYESCCPTSR [G13L],3.63
19,PCCSSSPEEPLNQESYESCCPTSR [G13Q],4.43
20,PCCSSSPEEPLNVESYESCCPTSR [G13V],3.51
21,PCCSSSPEEPLNEESYESCCPTSR [G13E],5.17
22,PCCSSSPEEPLNWESYESCCPTSR [G13W],2.79
23,PCCSSSPEEPLNSESYESCCPTSR [G13S],3.75
24,PCCSSSPEEPLNCESYESCCPTSR [G13C],3.54

row,Variant,protein stability index
1,PCCSSSPEEPLNAESYESCCPTSR [G13A],4.14
2,PCCSSSPEEPLNMESYESCCPTSR [G13M],3.29
3,PCCSSSPEEPLNHESYESCCPTSR [G13H],4.14
4,PCCSSSPEEPTNGESYESCCPTSR [L11T],4.11
5,PCCSSSPEEPYNGESYESCCPTSR [L11Y],3.55
6,PCCSSSPEEPHNGESYESCCPTSR [L11H],4.2
7,PCCSSSPEEPINGESYESCCPTSR [L11I],3.72
8,PCCSSSPEEPANGESYESCCPTSR [L11A],4.52
9,PCCSSSPEEPDNGESYESCCPTSR [L11D],3.94
10,PCCSSSPEEPCNGESYESCCPTSR [L11C],3.54
11,PCCSSSPEEPRNGESYESCCPTSR [L11R],3.93
12,PCCSSSPEEPSNGESYESCCPTSR [L11S],3.84
13,PCCSSSPEEPPNGESYESCCPTSR [L11P],4.08
14,PCCSSSPEEPMNGESYESCCPTSR [L11M],3.79
15,PCCSSSPEEPWNGESYESCCPTSR [L11W],2.82
16,PCCSSSPEEPKNGESYESCCPTSR [L11K],3.77
17,PCCSSSPEEPQNGESYESCCPTSR [L11Q],3.86
18,PCCSSSPEEPENGESYESCCPTSR [L11E],3.5
19,PCCSSSPEEPVNGESYESCCPTSR [L11V],4.2
20,PCCSSSPEEPGNGESYESCCPTSR [L11G],3.81
21,PCCSSSPEEPFNGESYESCCPTSR [L11F],3.75
22,PCCSSSPEEPNNGESYESCCPTSR [L11N],4.57
